Source: the supplement of paper PMC12042874
± gives the uncertainty stated by the source.

Assay: amyloid nucleation score (Sup35N fusion, yeast selection) (log enrichment); library NNK3; higher = more nucleation; inactive = no reads after selection
In short: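 Peptides of 20 random codons, each fused to Sup35N, were expressed in psi-negative yeast. Cells were induced with 100 μM copper sulfate for 24 hours and grown 7 days at 30°C on medium lacking adenine and uracil, and plasmid inserts before and after selection were Illumina-sequenced. Nucleation scores are DiMSum log enrichments of output over input reads, centred on the mode score of non-aggregating sequences, and sequences under 100 input reads were excluded.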

Row | Substance | amyloid nucleation score
1 | LLWLKL | inactive
2 | LLYARVIRRMCPKVVLFLSD | inactive
3 | LLYSLWQSHLMLTGCNM | inactive
4 | LMKFFINVKVSGGVTCVRIN | inactive
5 | LMLANVNAA | inactive
6 | LMLEISIHLLLYRVSISGYF | inactive
7 | LMLIFRLNCG | 1.62 ± 0.097
8 | LMLILCY | inactive
9 | LMQFLAQLTSLSLSLLEVIW | inactive
10 | LMRLLLNYWSITAIILL | inactive
11 | LMSTKVVFEL | 0.076 ± 0.19
12 | LNADVTMLKSNGVMTIT | inactive
13 | LNCATFHYLTAVILMEYCRT | inactive
14 | LNCGSAFRDVFTVMALNTRV | -0.14 ± 0.88
15 | LNCMVITFVCFLVSNSIGGD | 1.71 ± 0.11
16 | LNDDRISSGYAASIVKGLLT | -0.873 ± 1.4
17 | LNDGALDGQSTDALMGMEMR | inactive
18 | LNFAHAKMFSFITMVVY | inactive
19 | LNFCFHYCI | 1.54 ± 0.12
20 | LNLLSSSMIWSFVIGNRRVY | inactive
21 | LNLMD | inactive
22 | LNLSLVNCLMAVTCSLFL | 1.44 ± 0.13
23 | LNLTGVISNLRVVNGQ | inactive

Row | Substance | amyloid nucleation score
24 | LNLVVRHFPTNR | inactive
25 | LNNSEWSLS | inactive
26 | LNQGHYSVDLSSATGTVTTF | inactive
27 | LNRANNGVVYQMGVRDFQSS | inactive
28 | LNRAPTAQLSGDCRVGVQAT | inactive
29 | LNRSSFHLELITSTCKVFLV | inactive
30 | LNSFSPGKNDCS | inactive
31 | LNVDNCAYVFSDDNFMTDVN | inactive
32 | LNWMRFYVMDMVTFGVWSDQ | 0.152 ± 0.31
33 | LPAEMELVWHRRMNLP | inactive
34 | LPCPACKVLNDKNSSKCENY | inactive
35 | LPGNVFDVPLFNLDVYWVTR | inactive
36 | LPRLFVVDYPSQ | inactive
37 | LPSLQTG | inactive
38 | LQGQHDAHWQSCSRLSECSQ | inactive
39 | LQHFVR | inactive
40 | LQISSMIFELYIFDLMMVM | inactive
41 | LQKCNWRRMVGRNQCWGKAR | 0.89 ± 0.19
42 | LQLLENQSNAIYWHGGNESD | inactive
43 | LQLLRIGHWMLPCCWRILLV | inactive
44 | LQPCKNMSTLSQNPTLRCPF | inactive
45 | LQPGMDFSCRFKRLTLNMVH | -0.38 ± 0.88
46 | LQSCSCAGLFPDL | inactive

Row | Substance | amyloid nucleation score
47 | LQSYRDLQTRFFLFSAHTSL | inactive
48 | LQTVNLLVPACI | inactive
49 | LRATNRGVMLNRFVSTMDKS | inactive
50 | LRCVGGSGSEGLVLSRMVTG | inactive
51 | LRDFRKVSPAKVIDNRFQTD | 0.827 ± 0.17
52 | LREHWEELVLGFWFPKVCCF | inactive
53 | LREKND | inactive
54 | LREMGLHYWGD | inactive
55 | LRGTMGEV | inactive
56 | LRIGNVVCLKLSFSFNRYLW | 0.352 ± 0.75
57 | LRLCGAMPDRCLW | inactive
58 | LRLGRTVLYPIVLWLPYCFD | inactive
59 | LRLVKYNAGIHYGSVGPQFL | inactive
60 | LRMWERMCAVSL | inactive
61 | LRRRSLDHKSGSYLVTG | inactive
62 | LRRYALLVNAAQKEMRYSSS | -0.616 ± 1.1
63 | LRSFGYRRQ | inactive
64 | LRSKECIKMALKWLCKKYYW | inactive
65 | LRSLYSTINFKMCWICEAAS | inactive
66 | LRSRKWSSTVSCEYSANGLR | inactive
67 | LRTLALPSSVFVRDVHYY | 0.987 ± 0.15
68 | LRYSVEAFTRDDLTESSQVV | inactive
69 | LSCNDYNDG | inactive

Row | Substance | amyloid nucleation score
70 | LSDCRSWVPCGRHCSF | inactive
71 | LSDFMLVAILTV | inactive
72 | LSELVLSWMQMDSCTRFDMC | inactive
73 | LSEVRLRRQLLVGACDGGYN | inactive
74 | LSGPRYLVVKSGCACRDSFR | inactive
75 | LSGYYEQVVWVNRSSNSTMN | inactive
76 | LSIDMSLYLCSTFYFK | 2.31 ± 0.06
77 | LSIYGDPAYCALFAYECLWL | 1.93 ± 0.06
78 | LSIYYEFFLSETNFCYMLRC | 0.766 ± 0.15
79 | LSKNSEILIYAYVLETFSCS | inactive
80 | LSKPFPSMHFSRRWNRNGLW | inactive
81 | LSLHEGWSVNCVFCLLLTVW | 2.42 ± 0.077
82 | LSLTRNSH | inactive
83 | LSLTYVSPHA | 0.968 ± 0.17
84 | LSLVCNCRSTCNCPGLSL | inactive
85 | LSLYPFMWKYIIGAGKWLFL | inactive
86 | LSMDLPNQSLDKVSKRHSAN | inactive
87 | LSMFGGNASALL | inactive
88 | LSNGDAKTSRTASVRCLRYA | inactive
89 | LSRDGVFVPPTSRSYHPRLK | inactive
90 | LSSCMWDGPFFNCRVMKLSG | inactive
91 | LSSWEIVSSLSHWNVYVIAR | inactive
92 | LSVRSTLARLPSGVIMMRSM | inactive

Row | Substance | amyloid nucleation score
93 | LSYFYKVPLDTAYMW | 1.07 ± 0.12
94 | LSYNTVDVWPLAFNFWWMIS | 0.199 ± 0.44
95 | LTCSWIICLSMSYLTSRYNR | 1.83 ± 0.1
96 | LTELSETVPVVKRWKCLDYF | -0.807 ± 1.9
97 | LTFLVRDCCTCSICNDGPSR | 3.08 ± 0.079
98 | LTFVHNWFDPLCLHRNSAMN | inactive
99 | LTGACVLNR | 0.106 ± 1
100 | LTGLEMLYYTCFNVCTRKCV | inactive
101 | LTHPCLMPFMLVVTRLYMAA | -1.03 ± 1.8
102 | LTIRPFEVGRESESGFVLIS | inactive
103 | LTNGRNTYFLLSRYYFGTTS | inactive
104 | LTNSYLDMLRM | inactive
105 | LTRDVCFN | 0.312 ± 0.54
106 | LTSMI | inactive
107 | LTVLFTVCWVGTRAYGLIGG | inactive
108 | LTYTYGVGVMIGIITHRLVC | inactive
109 | LVALVRECT | inactive
110 | LVDVDVHR | -0.994 ± 2.5
111 | LVFPPAY | inactive
112 | LVGHEFTAGSNYDSDLGTV | inactive
113 | LVHIGFWCEVVQPLSCTDTS | 0.028 ± 0.65
114 | LVIVFCMVFLTFIF | 0.545 ± 0.13
115 | LVMHMRLAWRECDHVSKQMR | 0.883 ± 0.15

Row | Substance | amyloid nucleation score
116 | LVPVLNGVLSKLRSFNFHSG | inactive
117 | LVSLWLDRD | inactive
118 | LVVLIFYYV | inactive
119 | LVVLLFYFCYSHGYDEKVQW | 0.996 ± 0.12
120 | LVVSVRTYPTGCCPYKMLNQ | inactive
121 | LVYLSASFVW | 0.108 ± 0.67
122 | LVYNQVVHRFLTLVFLSYMS | inactive
123 | LVYNTDQSTRYAMTDYDADL | inactive
124 | LWDALDKDSESVIDMGQNEG | inactive
125 | LWDRVNCFYFRDEGDELEER | inactive
126 | LWEVRSEPDPDSSNKLLSRE | 0.136 ± 0.39
127 | LWFPVEGGYPPSDVKQKHIS | 0.086 ± 0.31
128 | LWGKNWIDVAECIVCLPQAS | inactive
129 | LWLFIAY | inactive
130 | LWNVLHDNSHCSLGSTPLGQ | inactive
131 | LWRIILWPFVTWSDMMFFQF | -0.076 ± 0.98
132 | LWSWDDIHPFCLILLLTRCP | inactive
133 | LWWCTLYSILYGTLSTYSCS | inactive
134 | LWYFRFNFTAYNYFLWYDTS | inactive
135 | LYDTDSCLSSYCSPFRHPRY | inactive
136 | LYFNRRWWPMRWVRDSPRPS | 0.024 ± 0.96
137 | LYGISL | inactive
138 | LYGTFVNSCQRFNLLDV | inactive

Row | Substance | amyloid nucleation score
139 | LYLNEYELTLEAKRDYMNMR | inactive
140 | LYLVKVD | inactive
141 | LYLYI | inactive
142 | LYMNATLSYCGTYCMVTQMV | inactive
143 | LYMVSYG | inactive
144 | LYNVMGLALASLAISNLRDK | inactive
145 | LYNVYGSRA | inactive
146 | LYRCDDGCSIRTVRDYWWVS | inactive
147 | LYRVVSLSYAVCLILSRCFT | inactive
148 | LYTNLTTVDLHCVKNA | inactive
149 | LYVVCKLSHRPHNAWEKRVP | 0.315 ± 0.29
150 | MACKLSTRKSSNWGKHLLCY | inactive
151 | MAHAFDTR | inactive
152 | MAMDCLISTALVLLVKYASV | inactive
153 | MASIVFFCMPSETNFVV | inactive
154 | MCNFCQLFFTLLITSLFKLG | 0.807 ± 0.18
155 | MCYALMRTTWCGKLKIVLSG | inactive
156 | MCYVVNAHGVASQ | inactive
157 | MDDFLYAVPMWELWKVLRDE | inactive
158 | MDITWIKVVHNIHQTVRSKF | 1 ± 0.22
159 | MDRIYLHISVEVSASFMSDA | inactive
